Source: the DeepSol protein solubility set

assay: soluble on expression in E. coli; label from the status in PepcDB or PDB records

With “GMTGLSQSQASPMQIQPGNAAFNPWTDAALDTIRDVNQALTLYAEMRVVPAHHDAFLAAIDTVSAKLRVLPGFLSLALKQMSGDSTMVKNYPETYKGVLATAYLDGVAAGTQPYFYNLFVRFADGRAARAAGFEALFETHIHPLLHAMAPRGGDGPELLAYRAVLQSVVAGDRHAIYRGAEEIRSFLRRPVELPERETVTVENHVMVPEDKHAAWEPQVAILLQVAQDTFEPQDEPSGVGLPGARDNRYYRKALSTEILRNAHADGGLRAYIMHGVWESVWDHENSHLDPRFLAAAGPVGAAAVVGPVEPFYLTRRLVVAD” as the sequence, how does the “soluble on expression in E. coli” value read?
Its value is “soluble”.

For “MAHHHHHHMAKVKMNPKLSSFTANAYEKKRQVGMYSKYIVDANPSGKDPSSSQTNKGNEYEEEDIVEKLRKREQSKQGGDYFMNAYKYTQPSAIIDYSSGEEQEYSQLLKKPKCPQCGVKNCVCGFMRSGGRRAR”, which “soluble on expression in E. coli” value is on record?
Its value is “soluble”.

Which “soluble on expression in E. coli” value does the source give for “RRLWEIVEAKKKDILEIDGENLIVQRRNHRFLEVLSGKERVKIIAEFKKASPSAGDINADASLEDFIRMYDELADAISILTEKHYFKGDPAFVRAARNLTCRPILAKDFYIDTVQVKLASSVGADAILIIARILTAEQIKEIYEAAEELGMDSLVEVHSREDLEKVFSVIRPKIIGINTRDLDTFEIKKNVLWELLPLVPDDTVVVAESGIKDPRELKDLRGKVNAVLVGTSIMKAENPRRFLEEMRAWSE” here?
The value was “soluble”.

With “MAHHHHHHMSVTIKLSNGSQKTVEVPDLNITVAKFKEIASAVTNIPADEQRVVLRGRVLKDGDVLSAMGMEHGQAVHIVRGQKSTKSDVASPSAQESASTQETQTNTNPQARPETVNPYAALAANLPASGGFSNNIPGNPNPGLQMPPELLSNMLQNPAFMQYFQEMMRNPQFLQQRMQQPQQQSQSQSPFGMNEGEMQRLLNNPMFMQLVLQMMSDPSIMQQLTQSLGGGFPASNTPLFGQQNAPAPNFAQNTGFFQPQGDPRVLYQSQLQQLREMGFTNEQANLAALEQAHGNIDFAIERLLNA” as the sequence, how does the “soluble on expression in E. coli” value read?
Its value is “soluble”.

With “MKICTMGLGYIGLPTSAMFAKYGTEVVGVDIHQKVVDKLNNGEIHIEEPGLGEVVKEVVANGKFRASLTPEEADAFIISVPTPNHDDEHKSCDLSYVLTATEKVLPFVKKGNVIIVESTIAPRSMDDYVKPLVEEAGFTVGEDIYLVHCPERVLPGQILHELVHNNRIVGGVTPACAEAGARVYGVFVEGEIIKTNAKTAEMSKLMENTFRDVNIALANELTKVCNSLDINVLDVIEMANKHPRVNLHYPGPGVGGHCLAVDPYFIVAKAPELANIIKLSRETNVSMPHYVTEKVKELLAGVENPKVAAFGVTYKGNVDDMRESPAMDVIDLIRNEGITVSAHDPHVESDFFELHSAEEAVKDAHLILVLTDHDEFKTMNYDSLAPYMAKTVVFDTRNCVQAVSTGEMKIINFGTLYEALNKNVMMV” as the sequence, how does the “soluble on expression in E. coli” value read?
The value was “not soluble”.

With “KTIYLQSPYFIPDASLLEAIKIAALSGVDVRVMIPNKPDHAFVYRATTNYAGELMETGAKIFIYDNGFIHAKTLVVDGEIASVGTANMDFRSFRLNFEVNAFIYEKKMVQKLEDAFLEDILKSYQLTPELYAKR” as the sequence, how does the “soluble on expression in E. coli” value read?
The value was “not soluble”.

With “MAHHHHHHSSGLEVLFQGPEPKKYAVTDDYQLSKQVLGLGVNGKVLECFHRRTGQKCALKLLYDSPKARQEVDHHWQASGGPHIVCILDVYENMHHGKRCLLIIMECMEGGELFSRIQERGDQAFTEREAAEIMRDIGTAIQFLHSHNIAHRDVKPENLLYTSKEKDAVLKLTDFGFAKETTQNALQTPCYTPYYVAPEVLGPEKYDKSCDMWSLGVIMYILLCGFPPFYSNTGQAISPGMKRRIRLGQYGFPNPEWSEVSEDAKQLIRLLLKTDPTERLTITQFMNHPWINQSMVVPQTPLHTARVLQEDKDHWDEVKEEMTSALATMRVDYDQV” as the sequence, how does the “soluble on expression in E. coli” value read?
Its value is “soluble”.

With “MGSDKIHHHHHHLFDRYEAGETAVLVHIDFSDDERREDLVELQLLVESAGARSVGVITGSRRAPDRKFFVGTGKAEELAAMVAATEAKVVIFNHALSPAQERNLERVCHCRVLDRTTLILDIFAQRARTHEGKLQVELAQLRHMSTRLIRGWTHLERQKGGIGMRGPGETQLETDRRLLRGRIKNINRRLDKVDKQREQSRRSRKRSDLATVSLVGYTNAGKSTLFNGLTSSDVYAADQLFATLDPTLRKLDLPDGAVILADTVGFIRHLPHDLVAAFKATLQETRQAELLLHIVDCADDNMQDNFDQVQDVLKEIDADEIPQLVVCNKIDLLEDFAPRIDYAEDGTPERVWLSAQKGQGFDLLLQAITELVGNIVLELTLKVPATGGHYIGQMYKLDVIEHKDYDDLGNCIVKIRLLDADWRRMIKQSQGELETFVFEASETDVIL” as the sequence, how does the “soluble on expression in E. coli” value read?
The value was “not soluble”.

Which “soluble on expression in E. coli” value does the source give for “MGSSHHHHHHSSGLVPRGSHMDTTVPTFSLAELQQGLHQDEFRRCLRDKGLFYLTDCGLTDTELKSAKDLVIDFFEHGSEAEKRAVTSPVPTMRRGFTGLESESTAQITNTGSYSDYSMCYSMGTADNLFPSGDFERIWTQYFDRQYTASRAVAREVLRATGTEPDGGVEAFLDCEPLLRFRYFPQVPEHRSAEEQPLRMAPHYDLSMVTLIQQTPCANGFVSLQAEVGGAFTDLPYRPDAVLVFCGAIATLVTGGQVKAPRHHVAAPRRDQIAGSSRTSSVFFLRPNADFTFSVPLARECGFDVSLDGETATFQDWIGGNYVNIRRTSKA” here?
Its value is “soluble”.

With “SLLLKQAIVYPITSQKFQGDVLVIGEKIAEVKPSIQPTQDMTVIDARALHLLPGFIDVHTHLGLYDEGTGWAGNDANETSEVSTPHIRSLDGIHPFDIAFQDAVQNGITTVHVMPGSQNIIGGTTCVIKTAGTCIDHMIIQEPAGLKIAFGENPKKVHSNGTKESITRMGIMGLLRESFYEAQHYGHEADFRMLPILKALRREIPVRIHAHRADDISSALRFATEFNLDLRIEHCTEGHFIVEELSKHNLKVSVGPTLTRRSKIELKNKTWDTYHILSKNGVEVSITTDHPYTPIQYLNVCAAVAVREGLDEKTALEGITIFPARNLRLEDRIGSIETGKDADLVLWTHHPFHYLAKPVLTMIDGKIIYKKNKKN” as the sequence, how does the “soluble on expression in E. coli” value read?
The value was “soluble”.

With “GKDFKYNIGFNLSDVKNKVIDLRGYKSSTTELTAKIEGQPLNAIFGFETLGICDNQELYDKYAPMMQKYNPKWGMGDIIIKDRTGEGVINDEDRTVIGNSIPRFTFGLNLGFEYKGFDFSCFFQGVGKADGYVTMEAIQPMGINGARKEHYKESFNPQDPKPGAYFPRILSSDYNYAYMSHWVQDASYIRLKNLQIGYSFKIKGLNQLRVYASGENLFTATKYRTWDPETPVGARGFYPNVAVYSMGVNLNF” as the sequence, how does the “soluble on expression in E. coli” value read?
The value was “not soluble”.

For “MTKQIKVGVIGVGQMGQYHAEIYQKLPQVELVAICEFNDERRAEMAEKFQCKAYKDYHELLANTEIEAVIIVLPDNMHRDCVEEAVKHKKHILLEKPLAKELEDGKAMYELTKDYDKVFTVGFLLRFDPRFNMIKQRLDNGELGDIIHLYCRRNSPITGPKRYIGASDLSMHVMIHDIDYINWYMDSEPVKVIAKSRSVLLKEYGMNDVIYAIVTYENGAIACLEACWVLPENSPTIIDDKLELVGTKGVAYVDSCDHGVRFVSEKGVSYPDSRHWYYTNGEVSGDLAEEVMAFINNVANNTKSIITPKEAYDSLRVVDAIERSIAEGKEVSL”, which “soluble on expression in E. coli” value is on record?
The value was “not soluble”.

With “MSLNEQRFFRFLRERIGLDVESVGAPMVERALRQRCVAAGAMDLDDYWLRLQQSADEQQALIEAVIVPETWFFRYPESFTALASLAHKRLAQLAGARPLRLLSLPCSTGEEPYSLAMALFDAGMAPGAFLVDGMDISPSSVAKAGQAVYGRNAFRGSELGFRERYFDALDEGHRLHERVRQQVSLRVGNVLDPALASRDGLYDFVFCRNLLIYFDVPTQQRVFEVLKRLLHPQGVLFIGPAEGSLLARMGMRPLGIAQSFAYVRHEGDSAPLAAAPAQTAKRAFTTLPAPVYPQPSVPLPRSRRVLPVAARPARAREHSHEGASELLAGIARLANAGASEQARSECQRYLSQYPPSAQVYYWLGLLSDTEGDAQQALSHYRKALYLEPQHPEALVHLAALLAAQGDLAGARRLQERAARAGRESEREGHHHHHH” as the sequence, how does the “soluble on expression in E. coli” value read?
The value was “soluble”.

For “HHPEAGNFKQRVILSHVGFDRPTVLVTEGYTAHYATHPRYQEELSKLFNANLVFVEYRYFGESMPKPCNWDYLTVENSLYDLHHVTTTLKQLYDEKWIATGISKGGQTTMFYRTYFPDDVDISVPYVAPLNQSLEDGRHEPFIANKVSTPENRKRVENFQLEVLKRKSRLLPIFEKYCSDKGYTFRIPIAEVYDFNVLEYSFALWQWGTPVNKIPETNADDHTLFKHFMAICEPDYFSEQSPYPSFNVQAAKELGYYGYDIKPFKKYLTIKSSRDYLHKVMLPPELSNLKFDKTLYNKVVKFLKENDPEMIYIYGGDDPWTASGVTWLKNKKNIKVYVLPGGSHTTRIGSFDTDTQEEIKTQINAWLNKE”, which “soluble on expression in E. coli” value is on record?
The value was “not soluble”.

Which “soluble on expression in E. coli” value does the source give for “QLSAGCGELSPQIGGGWLWSSMHRSGRYGTQQQRAGSKTAGPPCQWSRMASEGTNIPSPVVRQIDKQFLICSICLERYKNPKVLPCLHTFCERCLQNYIPAHSLTLSCPVCRQTSILPEKGVAALQNNFFITNLMDVLQRTPGSNAEESSILETVTAVAAGKPLSCPNHDGNVMEFYCQSCETAMCRECTEGEHAEHPTVPLKDVVEQHKASLQVQLDAVNKRLPEIDSALQFISEIIHQLTNQKASIVDDIHSTFDELQKTLNVRKSVLLMELEVNYGLKHKVLQSQLDTLLQGQESIKSCSNFTAQALNHGTETEVLLVKKQMSEKLNELADQDFPLHPRENDQLDFIVETEGLKKSIHNLGTILTTNAVASETVATGEGLRQTIIGQPMSVTITTKDKDGELCKTGNAYLTAELSTPDGSVADGEILDNKNGTYEFLYTVQKEGDFTLSLRLYDQHIRGSPFKLKVIRSADVSPTTEGVKRRVKSPGSGHVKQKAVKRPASMYSTGKRKENPIEDDLIFRVGTKGRNKGEFTNLQGVAASTNGKILIADSNNQCVQIFSNDGQFKSRFGIRGRSPGQLQRPTGVAVHPSGDIIIADYDNKWVSIFSSDGKFKTKIGSGKLMGPKGVSVDRNGHIIVVDNKACCVFIFQPNGKIVTRFGSRGNGDRQFAGPHFAAVNSNNEIIITDFHNHSVKVFNQEGEFMLKFGSNGEGNGQFNAPTGVAVDSNGNIIVADWGNSRIQVFDGSGSFLSYINTSADPLYGPQGLALTSDGHVVVADSGNHCFKVYRYLQ” here?
The value was “soluble”.

With “GPGSMKLTFYRLLGCPYCAKVEAVLQYHDVPYEEVHVDPLSGKGLPDRRYQLAPQLYLAPLAKRNSGGAEAAATDSNGVYVVDSAEIVSRLSGPLKYAADIANPRISATRDWITNHFHGASFAITNNSFCDAYATYAYVTPSNYQNFLYHVVGSAALSVLSRYKIQPRLIAKMECADGPAAATPTGAPASTDSNGLWMLSEASRKALAATVRFGAVEEWLRAELQTFLQRRPADKVFHGGSSPDLADVEMYGVTRVVDQHPRLGAVVREGAFGEWQTAMREKLKANTGSVYA” as the sequence, how does the “soluble on expression in E. coli” value read?
The value was “not soluble”.

For “GAMAPGGEMTFSIPTHKCGLVIGRGGENVKAINQQTGAFVEISRQLPPNGDPNFKLFIIRGSPQQIDHAKQLIEEKIEGPLCPVGPGPGGPGPAGPMGPFNPGPFNQ”, which “soluble on expression in E. coli” value is on record?
Its value is “soluble”.

With “HMSKVPRNFRLLEELEKGEKGFGPESCSYGLADSDDITMTKWNGTILGPPHSNHENRIYSLSIDCGPNYPDSPPKVTFISKINLPCVNPTTGEVQTDFHTLRDWKRAYTMETLLLDLRKEMATPANKKLRQPKEGETF” as the sequence, how does the “soluble on expression in E. coli” value read?
The value was “soluble”.

With “MSSLHKSRIADFQDVLKEPSIALEKLRELSFSGIPCEGGLRCLCWKILLNYLPLERASWTSILAKQRELYAQFLREMIIQPGIAKANMGVSREDVTFEDHPLNPNPDSRWNTYFKDNEVLLQIDKDVRRLCPDISFFQRATDYPCLLILDPQNEFETLRKRVEQTTLKSQTVARNRSGVTNQEQNIKPQFFAFRWLTLLLSQEFLLPDVTRIWDSLFADDNRFDFLLLVCCAMLMLIREQLLEGDFTVNMRLLQDYPITDVCQILQKAKELQDSK” as the sequence, how does the “soluble on expression in E. coli” value read?
Its value is “soluble”.

Which “soluble on expression in E. coli” value does the source give for “MKYQVSLLAVKDIEVSKKFYKELFEQEIELDLGKNVTFKGGFAIQEDFAWLTGINPDTIIQKSNNMELYFEVDDFDEFIEKLNYYKDVEFVHKPLKHEWQQRVVRIYDPDKHIIEIGESMEVIARRYLSEGYSVEETSKIIQHPIEFVKQCENSKELEHHHHHH” here?
Its value is “soluble”.
